Measured values from the nanobody polyreactivity screen of Harvey et al. (2022).

Assay: yeast display, Sf9 membrane polyspecificity reagent, FACS + sequencing; frameworks hold sequencing errors
Summary of the method: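 Polyreactivity labels are assigned by the sorting gate from which each nanobody was recovered. The gates were low and high (top ~1%), set on anti-HA fluorescence for expression and streptavidin fluorescence for reagent binding. Before sorting, galactose-induced (36–48 hours) yeast display cells were stained for 1 hour at 4 °C with 10% biotinylated, detergent-solubilized Sf9 membrane reagent.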

| Sequence | polyreactivity (PSR sort gate) |
| --- | --- |
| QVQLVESGGGLVQAGGSLRLSSAASGGTFWIYAMGWYRQAPGKERELVSGITTSGATTYYADSVKGRFTISRDNAKNTVYLQMNRLKPEDTAVYYCAADEYYRYEYWGQGTQVTESS | low polyreactivity |
| QVQLVESGGGLVQAGGSLRLSSAASGIIFAVYAMGWYRQAPGKERELVAAISTSGGRTYYADSVKGRFTISRDNAKNTVYLQMKSLKPEDTAVYYCAAPLRVSYDGMYYWGQGTQVTVSS | high polyreactivity |
| QVQLVESGGGLVQAGGSLRLSSAASGITFGLYAMGWYRQPPGKERELVADITWSGGSTYYADSVKGRFTISRDNAKNTVYFQMNRLKPEDTAVYYCNADLYADESLFWFALYDYWGQGTQVTVSS | low polyreactivity |
| QVQLVESGGGLVQAGGSLRLSSAASGITFNLNDMGWSRQAPGKERELVAAITSGGNTSYADSVKGRFTISRDNAKNTVYLQMNSLKPEDTAVYYCPTEDFRTDTGMYYWGQGTQVTVSS | low polyreactivity |
| QVQLVESGGGLVQAGGSLRLSSAASGITFQAYPMGWYRQAPGKQRELVAAISNGGSTYYADSVKGRFTISRDNAKNTVYLEMNSLNPEDTAVYYCAAVSYYPARYGYWGQGTQVTVSS | high polyreactivity |
| QVQLVESGGGLVQAGGSLRLSSAASGITYTPNAMGSYRQAPGKEREFVAAISVSGGSTYYADSVKGRFTISRDNAKYTVYLQMNSLKPEDTAVYYCATDFRRYAAKLYRYYYWGLGTQVTVSS | high polyreactivity |
| QVQLVESGGGLVQAGGSLRLSSAASGLIFVFYAMGWYRQAPGKERELVAAISTSGDRTYYADSVKGRFTISRDNAKNTVYLQMNSLKPEDTAVYYCAAGRRKVPYSREYYYWGQGTQVTVSS | high polyreactivity |
| QVQLVESGGGLVQAGGSLRLSSAASGLIFVHYAMGWSRQAPGKERELVSAISFRGGRTYYADSVKGRFTISRDNAKNTVYVQMNSLKPEDTAVSYCAATIKAYPTPLLGDYWGQGTQVTVSS | high polyreactivity |
| QVQLVESGGGLVQAGGSLRLSSAASGNTFWHYAMGWYRQAPGKERELVAAITRSTGSTYYADSVKGRFTISRDNAKYSVYLQMNSLKPEDTAVYYCAADFYRHYFRVDSWGQGTQVTVSS | low polyreactivity |
| QVQLVESGGGLVQAGGSLRLSSAASGRIFAGNAMGWYRQAPGKERELVAVISKGGGRTYYADSVKGRFTISRDNAKNTVYLQMNSLKPEDTAVYDCDAEGSYWFRRYGYWGQGTQVTVSS | high polyreactivity |
| QVQLVESGGGLVQAGGSLRLSSAASGRIFGKYAMGWYRQAPGKERELVAAIRITGGSTYYADSVKGRFTISRDNAKNTVYLQMNSLKPEDTAVYYSAAVYKYADVIYDYWGQGTQVTVSS | high polyreactivity |
| QVQLVESGGGLVQAGGSLRLSSAASGRIFNPNGMGWYRQAPGKDRELVAVITRSGTSTYYADSVKGRFTISREYAKNTFYRQMYSLKPEDTAVYYCNAGKKYVDYGVLSSRYYWGQGTQVTVSS | low polyreactivity |
| QVQLVESGGGLVQAGGSLRLSSAASGRIFRGNEMGWYRQAPGKEREFVAAISWGGGSTYYADSVKGRFTISRDNAKKTVYLQMNSLKPEDTAVYYCAAGSPYAYNYWGQGTQVTVSS | high polyreactivity |
| QVQLVESGGGLVQAGGSLRLSSAASGRIFSRNGMGWYRPAPGKERELVAAIRRYGGSTYYADSVKGRFTISRDNEKNTVNLQMNSLKAEDTAVFFCAAEPYGGGVKHSAYDYWGQGTQVTVSS | low polyreactivity |
| QVQLVESGGGLVQAGGSLRLSSAASGRIFTIYAMGWYRQAPGKERELVATISRRGGSTYYADSVKGRFTISRDNAKNTVYLQMNSLKPEDTAGYYCAADSVITWWAYDYWGQGTQVTVSS | high polyreactivity |
| QVQLVESGGGLVQAGGSLRLSSAASGRIFTVYAMGWYRQAPGKERELVAAITRGGGGTYYADSVKGRFTITRDYAKNTDYLQMNRLKPEDTAVYYCAATHNQVVARYSFNYWGQGTQVTVSS | high polyreactivity |
| QVQLVESGGGLVQAGGSLRLSSAASGRIFYGYAMGWSRQAPGKERELVAAITRSSSTYFADSVKGRFTISRDNAKNTVYLQMNSLKPEDTAVYDCAVYRLSWIGSVQYEYWGQGTQVTVSS | high polyreactivity |
| QVQLVESGGGLVQAGGSLRLSSAASGRIFYQYAMGWYRQAPGKERELVASISRSGTRTYYADSVKGRFTISRDNAKNTVYLQMISLKPEDTAVYYCAARGRASVERRGGYYYWGQGTQVTVSS | high polyreactivity |
| QVQLVESGGGLVQAGGSLRLSSAASGRIIKIYAMGWYRQAPGKERELVAAISGRGGSTYYADSVKGRFTISRDNAKYTVYLQMNSLKPEDTAVYYCAAVGYGFSAYSTYDYWGQGTQVTVSS | high polyreactivity |
| QVQLVESGGGLVQAGGSLRLSSAASGRLFSEYAMGWYRQAPGKERELVAAISRRGGRTYYADSVKGRFTISRDNAKNTVYVQMNSLIPEDTAVYYCAADHGDPGGYDYWGQGSQVTVSS | high polyreactivity |
| QVQLVESGGGLVQAGGSLRLSSAASGRNFYANAMGWSRQAPGKERYFVAAISWGGGSTNYADSVKGRFTISRDNAKNTGYLQKNSQKPEDTAVYYCATGFYYYLTKTIPYEYEYWGLGTQVTVSS | low polyreactivity |
| QVQLVESGGGLVQAGGSLRLSSAASGRTFDFYAMGWYRQAPGKERELVAAITGSDTSTYYADSVKGRFTISRDNAKNTVYLQMNSLKPEDTAVYYCAADGQWAYTVDPYVIYYRLDYWGQGTQVTVSS | low polyreactivity |

| Sequence | polyreactivity (PSR sort gate) |
| --- | --- |
| QVQLVESGGGLVQAGGSLRLSSAASGRTFDRNAMGWYRQAPGKERELVAGITRSGDSTYADSVKGRFTISRDNAKITVYLQMNSLKPEDTAVYYCNKEGTVGGTRGYWGQGTQVTVSS | low polyreactivity |
| QVQLVESGGGLVQAGGSLRLSSAASGRTFGVNAMGWYRQAPGKERELVASISWGGGSTYYADSVKGRFTISRDNAKNTVYLQMNSLKPEDTAVYFCNRAYVRYVPMNYWGQGTQVTVSS | high polyreactivity |
| QVQLVESGGGLVQAGGSLRLSSAASGRTFQRNVMGWYRQAPGKDRELVAAISSSGGGTYYADSVKGRFTISRDNAKNTVYLQMNSLKPEDTAVYYCAARYRSYGGYGYYYWGLGTQVTVSS | high polyreactivity |
| QVQLVESGGGLVQAGGSLRLSSAASGRTFSGYAMGWYRQAPGKERELVASISGSGSSTYYADSVKGRFTISRDNAMNTVYLQMNSLKPEDTAVYYCAKRSFYYRIQTGYNYWGQGTQVTVSS | high polyreactivity |
| QVQLVESGGGLVQAGGSLRLSSAASGRTFVINAMGWYRQAPGKERELVAAITWGGGSTYYADSVKGRFTISRDNAKNTVYLQMNSLKQEDSAVYYCATSYSVQYGGSGYYWGQGTQVTVSS | low polyreactivity |
| QVQLVESGGGLVQAGGSLRLSSAASGRTFYYNAMGWYRQAPGKEREFVAVMTSSGGSTYYADSVKGRFTISRDNAKNTVYLQMNSLKPEDTAVYYSAASNTEQQLVVLIEVYYTRYDYWGQGTQETVSS | low polyreactivity |
| QVQLVESGGGLVQAGGSLRLSSAASGRTLSKNAMGWYRQAPGKERELVATISSVGRTNYADSVKGRFTISRDNAKNTVYLQMNSLKPEDTAVYYCAATVRGKRSTYDYWGQGTQVTVSS | high polyreactivity |
| QVQLVESGGGLVQAGGSLRLSSAASGRTSLAYAMGWYRQAPGKERELVAVITSGGNTNYADSVKGRFTISRDNAKNTVYLQMNSLKPEDTAVYYCNKKKRWQWYSESVLDYLGFYSWGQGTQVTVSS | low polyreactivity |
| QVQLVESGGGLVQAGGSLRLSSAASGSIFASYAMGWYRQAPGKERELVAAISRRAVRTYYADSVKGRFTISRDNAKNTVYLQMNSLKPEDSAVYYCNAASSLPGYDYWGQGTQLTVSS | high polyreactivity |
| QVQLVESGGGLVQAGGSLRLSSAASGSIFDKNAMGWYRQAPGKERELVAAIRRTSTTYYADSVKGRFTISRDNAKNTVFLKMNSLKPEDTAVYYCAATYGSGYWYPRYYYWGQGTEVTVSS | high polyreactivity |
| QVQLVESGGGLVQAGGSLRLSSAASGSIFELNAMGWYRQAPGKERELVASISFRGTSTYYADSVKGRFTISRDYAKNTVYLKMNSLKPDDNAVYYCAADTTFPFSYWGQGTQVTVSS | low polyreactivity |
| QVQLVESGGGLVQAGGSLRLSSAASGSIFGDYVMGWSRQAPGKERELVAAINRGGSTYYADSVKGRFTISRDNAKNTVYLHMNSLKPEDTAVYYCAAGYPSWYYGDPYDSWGQGTQVTVSS | low polyreactivity |
| QVQLVESGGGLVQAGGSLRLSSAASGSIFPKNTMGWYRQAPGKERELVAAISKSGGSTYYADSVKGRFTISRDNAKNTVYLQMNSLKPEDTAVYYCAAALGLRSTSWGRRGGGGDYWGQGTQVTVSS | high polyreactivity |
| QVQLVESGGGLVQAGGSLRLSSAASGSIFRRYALGWYRQEPGKESELVAAISRSAGSTYYADSVKGRFTISRDNAKNTVYLQMNSLKPEETAVYYCKTDPSRSPGDVVSASVIKRDYWGQGTQVTVSS | low polyreactivity |
| QVQLVESGGGLVQAGGSLRLSSAASGSIFRWYAMGWYRQAPGKERELVAAISRGGRTNYADSVKGRFTISRDNAKNTVYLQMNSLKPEDTAVYYCNKVLRNYSSTGVISVLTDYDYWGQGTQVTVSS | high polyreactivity |
| QVQLVESGGGLVQAGGSLRLSSAASGSIFSRYAMGWYRQAPGKEREMVAALNGRGSRTYYADSVKGRFTISRDNSKNTVYLLMNSLKPEDTAVYYCAAESYTAWELDYWGQGTQVTVSS | high polyreactivity |
| QVQLVESGGGLVQAGGSLRLSSAASGSIFYYNAMGWYRQAPGKEREFVAAISARGGSTYYADSVKGRFTISRDNAKNTVYLQMNSLKPEDTAVYYCAASWGLDTYSDSTYWGGYYYSGQGTQVTVSS | low polyreactivity |
| QVQLVESGGGLVQAGGSLRLSSAASGSILYFNAMGWYRQAPGKERELVAAISRSGGSTYYADSVKGRFTISRDNAKNTVYLQMNSLKPEDTAVYYCAAVYIRCRGNRFDYWGQGTQVTVSS | high polyreactivity |
| QVQLVESGGGLVQAGGSLRLSSAASGSNFPPNAMGWYRQAPGKEREFVASITSSGGITNYADSVKGRFTISRDNAKNTVYLQMNSLKPEDTAVYYCAAKYYGGTRFRPYGYWGQGTQVTVSS | high polyreactivity |
| QVQLVESGGGLVQAGGSLRLSSAASGSSFYRYAMGSYRQAPGKERELVATITRSGGSTYYADSVKGRFTISRDNAKNTVYLQMNSLKPEDTAVYYCAARGWYKSDYWGQGTQVTVSS | low polyreactivity |
| QVQLVESGGGLVQAGGSLRLSSAASGSTFAEYAMGWYRQAPGKERELVAAIRWSGGSTSYADSVKGRFTISRDNAKNTVYLQMNSLKPEDTAVYYCAAERFWYDGEVKLYVLSYYWGQGTQVTVSS | low polyreactivity |
